Measurements published in article PMC5767869.

Assays:
[1] = biological target: α-RSV (clone B21M) human IgG1 F405L lacking hinge disulfides (C226S/C229S), half-Ab (human); test: hydrophobic interaction chromatography; products of cFAE analysed for the share of bsAb
[2] = biological target: Alexa Fluor 488-labelled F405L half-Fc (IdeS fragment of α-RSV F405L IgG1WT) (human); test: fluorescence correlation spectroscopy (FCS); constant 50 pM Alexa Fluor 488-labelled half-Fc, 1:3 or 1:4 dilutions of unlabelled half-Ab (IgG1C→S), equilibrated at room temperature overnight; diffusion times of all four half-Fc/half-Ab combinations globally fitted with one KD each for F405L homodimerisation, K409R homodimerisation and heterodimerisation
[3] = biological target: Alexa Fluor 488-labelled K409R half-Fc (IdeS fragment of α-gp120 K409R IgG1WT) (human); test: as above
[4] = biological target: α-gp120 (clone b12) human IgG1 K409R lacking hinge disulfides (C226S/C229S), half-Ab (human); test: FRET or BRET; Fab-arm exchange between donor (Alexa Fluor 488)- and acceptor (Alexa Fluor 594)-labelled IgG1C→S Abs, 200 nM each, PBS, 25 °C, no reductant; monoexponential exchange rate taken as the rate of dissociation of the full Ab (half-Ab dimer) into half-Abs
[5] = biological target: α-RSV (clone B21M) human IgG1 F405L lacking hinge disulfides (C226S/C229S), half-Ab (human); test: as above

Sequence of α-RSV (clone B21M) human IgG1 F405L lacking hinge disulfides (C226S/C229S), half-Ab (human) (heavy, as listed by the source, chain 1 of 2): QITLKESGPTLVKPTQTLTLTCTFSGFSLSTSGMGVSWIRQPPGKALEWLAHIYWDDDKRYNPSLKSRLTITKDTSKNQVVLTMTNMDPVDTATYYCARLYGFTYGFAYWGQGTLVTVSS
Sequence of α-RSV (clone B21M) human IgG1 F405L lacking hinge disulfides (C226S/C229S), half-Ab (human) (light, as listed by the source, chain 2 of 2): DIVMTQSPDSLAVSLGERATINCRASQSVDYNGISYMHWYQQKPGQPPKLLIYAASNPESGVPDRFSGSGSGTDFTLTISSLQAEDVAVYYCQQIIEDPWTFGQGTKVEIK

percent bsAb after cFAE [1]: > 90%
Kd [2]: 0.0656 nM
Kd [3]: 0.337 nM
koff [4]: 0.000673 s⁻¹
koff [5]: 0.000198 s⁻¹
Substance: α-gp120 (clone b12) human IgG1 K409R lacking hinge disulfides (C226S/C229S), half-Ab (antibody)
